Experiments:
[1] = target: T1, recombinant biotinylated human CD38 Avitag, His Tag (Acrobiosystems, CD8-H82E7) (human, UniProt P28907 43-300, biotinylated (Avitag)); assay: SPR, biotinylated CD38 captured, Fab analyte, 1:1 fit;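 further: biacore T200 at 25 °C, single-cycle kinetics with Fab injected at 7.8–2000 nM for 3 min, dissociation followed 5 min, reference flow path subtracted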
T1 construct: Bought protein; also called biotinylated human CD38-avi-his protein; biotinylated recombinant human CD38 protein
Protocol: (§1) Surface plasmon resonance (SPR) was used to measure the binding affinities of the Fab fragments for human and cynomolgus monkey CD38. Affinities were measured on a Biacore T200 instrument (Biacore, GE Healthcare) at 25° C. and analyzed with the Biacore T200 Evaluation Software (v3.1).
(§2) The affinities to human and cynomolgus monkey CD38 were assessed by immobilizing CD38 and using Fab fragments as analyte. Biotinylated recombinant human CD38 protein was immobilized to around 160 RU on flow-path 2 of a Series S Sensor Chip SA or to around 100 RU on flow-path 2 of a Series S BiotinCAPture Chip and recombinant cynomolgus monkey CD38-his protein was immobilized to around 50-100 RU on flow-path 2 of a Series S CM5 Sensor Chip previously coated with anti-histidin antibody. Fab fragments were injected in single cycle kinetic at different concentrations ranging from 7.8 to 2000 nM, in HBS-EP+ buffer (Biacore, GE Healthcare, catalog NO: BR100669) at a flow rate of 30 μl/min for 3 min on flow-path 1 and 2 (flow-path 1 being used as reference). Dissociation was monitored for 5 min.

[2] = target: T2, recombinant cynomolgus monkey CD38-ECD-C-his (cynomolgus monkey, UniProt Q5VAN0 45-301); assay: SPR, His-captured cyno CD38, Fab analyte, 1:1 fit
T2 construct: Extracellular region fused to 6-His; also called cyno CD38-C-His; recombinant cynomolgus monkey CD38 protein
Protocol: as §1, §2

[3] = target: T3, recombinant human CD38-ECD-C-his (human, UniProt P28907 43-300); assay: SPR, Fab captured as ligand, CD38 analyte
T3 construct: Extracellular region fused to 6-His, made in house; also called human CD38-C-His; recombinant human CD38 protein
Protocol: (§3) Affinities of the Fab to human and cynomolgus CD38 using the Fab as ligand were measured on a Biacore T200 instrument (Biacore, GE Healthcare) at 25° C. and analyzed with the BiacoreT200 Evaluation Software (v3.1). […] The affinities to human and cynomolgus monkey CD38 were assessed by immobilizing Fab fragments and using human or cynomolgus monkey CD38 protein as analyte. Around 50-200 RU of Fab was captured on flow-path 2 of a Series S CM5 Sensor Chip coupled with anti-human Fab antibodies. Human or cynomolgus monkey CD38 was injected in multi cycle kinetic at different concentrations ranging from 0.2 to 100 nM, in HBS-EP+ buffer (Biacore, GE Healthcare, catalog NO: BR100669) at a flow rate of 30 μl/min for 5 min on flow-path 1 and 2 (flow-path 1 being used as reference). Dissociation was monitored for 10 min. […] Experimental data were processed using the 1:1 Langmuir kinetic fitting model. Measurements included zero-concentration samples for referencing. Chi², U- and residual values were used to evaluate the quality of a fit between the experimental data and individual binding models.

[4] = target: T2, recombinant cynomolgus monkey …; assay: SPR, Fab captured as ligand, cyno CD38 analyte
Protocol: as §3

[5] = target: T1, recombinant biotinylated human CD38 …; assay: SPR, biotinylated CD38 captured, Fab as analyte
[6] = target: T2, recombinant cynomolgus monkey …; assay: SPR, His-captured cyno CD38, Fab as analyte

Kd [1] | Kd [2] | Kd [3] | Kd [4] | Kd [5] | Kd [6] | Binder
810 nM | 178 nM | – | – | – | – | Anti-CD38-UCP03-H3 Fab (Fab, V domains shown, human IgG1 Fab) VH: QVQLVQSGAEVKKPGSSVKVSCKASGGVFSQFPISWVRQAPGQGLEWMGGIIAGYGATEYAQKFQGRVTITADESTSTAYMELSSLRSEDTAVYYCARVYGGIDWGQGTLVTVSS VL: not shown
1850 nM | 672 nM | – | – | – | – | Anti-CD38-UCP03-H2 Fab (Fab, V domains shown, human IgG1 Fab) VH: QVQLVQSGAEVKKPGSSVKVSCKASGGEFSIYVISWVRQAPGQGLEWMGRVIPSTGDTNYAQKFQGRVTITADESTSTAYMELSSLRSEDTAVYYCARGKAYYSGWLAIWGQGTLVTVSS VL: not shown
882 nM | 462 nM | – | – | – | – | Anti-CD38-UCP03-B1 Fab (Fab, V domains shown, human IgG1 Fab) VH: QVQLVQSGAEVKKPGSSVKVSCKASGGGFSKYFITWVRQAPGQGLEWMGGVIPKIGYTSYAQKFQGRVTITADESTSTAYMELSSLRSEDTAVYYCARGSDDYASYSPLDSWGQGTLVTVSS VL: not shown
– | – | 1.6 nM | 4.4 nM | – | – | anti-CD38-420-E2-RecB FAB (Fab, V domains shown, human IgG1 Fab) VH: QVQLVQSGAEVKKPGSSVKVSCKASGLPDATYAIGWVRQAPGQGLEWMGRIIPALAATHYAQKFQGRVTITADESTSTAYMELSSLRSEDTAVYYCARGLGYYLYSSYYFDIWGQGTLVTVSS VL: not shown
– | – | 6.13 nM | – | 3.5 nM | 2.4 nM | anti-CD38-E2-UCP02-F3 FAB (Fab, V domains shown, human IgG1 Fab; also called anti-CD38-E2-F3) VH: QVQLVQSGAEVKKPGSSVKVSCKASGGSFSNYAIGWVRQAPGQGLEWMGRIIPVLDAAHYAQKFQGRVTITADESTSTAYMELSSLRSEDTAVYYCARGLGYYLYSSYYFDIWGQGTLVTVSS VL: not shown
– | – | 0.9 nM | 3.7 nM | – | – | anti-CD38-420-E2-RecA FAB (Fab, V domains shown, human IgG1 Fab; also called anti-CD38-E2-RecA) VH: QVQLVQSGAEVKKPGSSVKVSCKASGLPDATYAIGWVRQAPGQGLEWMGRIIPRLDAEHYAQKFQGRVTITADESTSTAYMELSSLRSEDTAVYYCARGLGYYLYSSYYFDIWGQGTLVTVSS VL: not shown
– | – | 7.7 nM | – | 5.2 nM | 4.2 nM | anti-CD38-E2-UCP02-G8 FAB (Fab, V domains shown, human IgG1 Fab) VH: QVQLVQSGAEVKKPGSSVKVSCKASGGSFSNYAIGWVRQAPGQGLEWMGRIIPALGGVHYAQKFQGRVTITADESTSTAYMELSSLRSEDTAVYYCARGLGYYLYSSYYFDIWGQGTLVTVSS VL: not shown
– | – | 5.35 nM | – | 4.9 nM | 1.1 nM | anti-CD38-E2-UCP02-D6 FAB (Fab, V domains shown, human IgG1 Fab) VH: QVQLVQSGAEVKKPGSSVKVSCKASGGSFSNYAIGWVRQAPGQGLEWMGRIIPRLDAEHYAQKFQGRVTITADESTSTAYMELSSLRSEDTAVYYCARGLGYYLYSSYYFDIWGQGTLVTVSS VL: not shown
– | – | 16.2 nM | – | 17.6 nM | 24.5 nM | anti-CD38-E2-UCP02-F8 FAB (Fab, V domains shown, human IgG1 Fab; also called anti-CD38-E2-F8) VH: QVQLVQSGAEVKKPGSSVKVSCKASGGSFSNYAIGWVRQAPGQGLEWMGRIIPSLDAGHYAQKFQGRVTITADESTSTAYMELSSLRSEDTAVYYCARGLGYYLYSSYYFDIWGQGTLVTVSS VL: not shown
– | – | 35 nM | – | 23.6 nM | 4.4 nM | anti-CD38-E2-UCP02-A5 FAB (Fab, V domains shown, human IgG1 Fab) VH: QVQLVQSGAEVKKPGSSVKVSCKASGGSFSNYAIGWVRQAPGQGLEWMGRIIPDLGAAHYAQKFQGRVTITADESTSTAYMELSSLRSEDTAVYYCARGLGYYLYSSYYFDIWGQGTLVTVSS VL: not shown
– | – | 6.7 nM | 22.1 nM | – | – | anti-CD38-420-E2-RecD FAB (Fab, V domains shown, human IgG1 Fab) VH: QVQLVQSGAEVKKPGSSVKVSCKASGLPDATYAIGWVRQAPGQGLEWMGRIIPALGGVHYAQKFQGRVTITADESTSTAYMELSSLRSEDTAVYYCARGLGYYLYSSYYFDIWGQGTLVTVSS VL: not shown
– | – | 16.9 nM | – | 9.4 nM | 8.6 nM | anti-CD38-E2-UCP01-A10 FAB (Fab, V domains shown, human IgG1 Fab) VH: QVQLVQSGAEVKKPGSSVKVSCKASGLPDATYAIGWVRQAPGQGLEWMGRIIPVFGSAHYAQKFQGRVTITADESTSTAYMELSSLRSEDTAVYYCARGLGYYLYSSYYFDIWGQGTLVTVSS VL: not shown
– | – | 4.66 nM | – | 2.2 nM | 1.8 nM | anti-CD38-E2-UCP02-E7 FAB (Fab, V domains shown, human IgG1 Fab) VH: QVQLVQSGAEVKKPGSSVKVSCKASGGSFSNYAIGWVRQAPGQGLEWMGRIIPALAATHYAQKFQGRVTITADESTSTAYMELSSLRSEDTAVYYCARGLGYYLYSSYYFDIWGQGTLVTVSS VL: not shown
– | – | 1.3 nM | 3.9 nM | – | – | anti-CD38-420-E2-RecC FAB (Fab, V domains shown, human IgG1 Fab) VH: QVQLVQSGAEVKKPGSSVKVSCKASGLPDATYAIGWVRQAPGQGLEWMGRIIPVLDAAHYAQKFQGRVTITADESTSTAYMELSSLRSEDTAVYYCARGLGYYLYSSYYFDIWGQGTLVTVSS VL: not shown
410 nM | 525 nM | – | – | – | – | Anti-CD38-UCP03-A6 Fab (Fab, V domains shown, human IgG1 Fab) VH: QVQLVQSGAEVKKPGSSVKVSCKASGGDFSLYAISWVRQAPGQGLEWMGGIIPLLGEPVYAQKFQGRVTITADESTSTAYMELSSLRSEDTAVYYCARGHRVYSSSPFDYWGQGTLVTVSS VL: not shown
– | – | 2.3 nM | 5.2 nM | 0.55 nM | 3.33 nM | anti-CD38-B6-MP01-D9 FAB (Fab, V domains shown, human IgG1 Fab; also called anti-CD38-B6-D9) VH: QVQLVQSGAEVKKPGSSVKVSCKASGGFFSHYIINWVRQAPGQGLEWMGRVIPVIDDAYYAQKFQGRVTITADESTSTAYMELSSLRSEDTAVYYCARSRGYYGSFYFDIWGQGTLVTVSS VL: not shown
– | – | 345 nM | – | 209 nM | – | anti-CD38-B6-MP01-C2 FAB (Fab, V domains shown, human IgG1 Fab) VH: QVQLVQSGAEVKKPGSSVKVSCKASGGAFSDYVISWVRQAPGQGLEWMGRVIPVIDDAYYAQKFQGRVTITADESTSTAYMELSSLRSEDTAVYYCARSRGYYGSFYFDIWGQGTLVTVSS VL: not shown
– | – | 128 nM | 534 nM | 425 nM | 262 nM | anti-CD38-B6-MP02-G11 FAB (Fab, V domains shown, human IgG1 Fab) VH: QVQLVQSGAEVKKPGSSVKVSCKASGGHTLPPIINWVRQAPGQGLEWMGRVIPVIDDAYYAQKFQGRVTITADESTSTAYMELSSLRSEDTAVYYCARSRGYYGSFYFDIWGQGTLVTVSS VL: not shown
– | – | 51.6 nM | 167 nM | 11.9 nM | 45.4 nM | anti-CD38-B6-MP01-B4 FAB (Fab, V domains shown, human IgG1 Fab) VH: QVQLVQSGAEVKKPGSSVKVSCKASGYEFNTYIINWVRQAPGQGLEWMGRVIPVIDDAYYAQKFQGRVTITADESTSTAYMELSSLRSEDTAVYYCARSRGYYGSFYFDIWGQGTLVTVSS VL: not shown
– | – | 89.4 nM | 389 nM | 28.3 nM | 120 nM | anti-CD38-B6-MP01-H3a FAB (Fab, V domains shown, human IgG1 Fab) VH: QVQLVQSGAEVKKPGSSVKVSCKASGGPFNANIVNWIRQAPGQGLEWMGRVIPVIDDAYYAQKFQGRVTITADESTSTAYMELSSLRSEDTAVYYCARSRGYYGSFYFDIWGQGTLVTVSS VL: not shown
– | – | 108 nM | 528 nM | 20.1 nM | 81.2 nM | anti-CD38-B6-MP02-B10 FAB (Fab, V domains shown, human IgG1 Fab) VH: QVQLVQSGAEVKKPGSSVKVSCKASGGHNLGKIINWVRQPPGQGLEWMGRVIPVIDDAYYAQKFQGRVTITADESTSTAYMELSSLRSEDTAVYYCARSRGYYGSFYFDIWGQGTLVTVSS VL: not shown
– | – | 171 nM | 330 nM | 28.9 nM | 130 nM | anti-CD38-B6-MP01-H3b FAB (Fab, V domains shown, human IgG1 Fab) VH: QVQLVQSGAEVKKPGSSVKVSCKASGGPFQSNIVNWIRQAPGQGLEWMGRVIPVIDDAYYAQKFQGRVTITADESTSTAYMELSSLRSEDTAVYYCARSRGYYGSFYFDIWGQGTLVTVSS VL: not shown
– | – | 404 nM | 342 nM | 101 nM | – | anti-CD38-B6-MP02-C2 FAB (Fab, V domains shown, human IgG1 Fab) VH: QVQLVQSGAEVKKPGSSVKVSCKASGGHGQQRIINWVRQAPGQGLEWMGRVIPVIDDAYYAQKFQGRVTITADESTSTAYMELSSLRSEDTAVYYCARSRGYYGSFYFDIWGQGTLVTVSS VL: not shown
– | – | 97.7 nM | 333 nM | 12 nM | 67.2 nM | anti-CD38-B6-MP02-C1 FAB (Fab, V domains shown, human IgG1 Fab) VH: QVQLVQSGAEVKKPGSSVKVSCKASGGHQLGKIINWVRQAPGQGLEWMGRVIPVIDDAYYAQKFQGRVTITADESTSTAYMELSSLRSEDTAVYYCARSRGYYGSFYFDIWGQGTLVTVSS VL: not shown
– | – | 227 nM | 828 nM | 84.9 nM | 229 nM | anti-CD38-B6-MP01-A4 FAB (Fab, V domains shown, human IgG1 Fab) VH: QVQLVQSGAEVKKPGSSVKVSCKASGGPFSDYVINWVRQAPGQGLEWMGRVIPVIDDAYYAQKFQGRVTITADESTSTAYMELSSLRSEDTAVYYCARSRGYYGSFYFDIWGQGTLVTVSS VL: not shown
